# Data: paper PMC4560413, “Ethyl Pyruvate Emerges as a Safe and Fast Acting Agent against Trypanosoma brucei by Targeting Pyruvate Kinase Activity” (PLoS ONE, 2015)
# System: C=C(OP(=O)(O)O)C(=O)O
# Assay: purified protein
# Conditions: Mg2+
# Sequence of pyruvate kinase (PK-1 from rabbit muscle) (Oryctolagus cuniculus) (chain, as listed by the source): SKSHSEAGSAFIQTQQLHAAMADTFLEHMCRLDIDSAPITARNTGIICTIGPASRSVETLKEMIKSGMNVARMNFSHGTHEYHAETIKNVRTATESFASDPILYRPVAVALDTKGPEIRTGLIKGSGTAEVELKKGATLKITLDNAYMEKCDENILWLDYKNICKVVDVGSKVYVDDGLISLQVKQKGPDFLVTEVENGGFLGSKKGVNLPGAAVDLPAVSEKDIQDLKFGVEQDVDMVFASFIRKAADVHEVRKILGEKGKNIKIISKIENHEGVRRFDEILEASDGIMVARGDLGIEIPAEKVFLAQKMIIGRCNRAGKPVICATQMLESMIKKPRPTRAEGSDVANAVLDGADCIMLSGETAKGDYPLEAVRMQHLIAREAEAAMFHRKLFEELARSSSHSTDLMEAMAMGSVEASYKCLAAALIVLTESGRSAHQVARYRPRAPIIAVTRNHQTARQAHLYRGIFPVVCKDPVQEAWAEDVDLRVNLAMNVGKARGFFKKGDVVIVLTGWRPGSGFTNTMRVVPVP
substance,measurement,value
pyruvate kinase (PK-1 from rabbit muscle) (Oryctolagus cuniculus),Km,220 ± 20 µM
